Experimental data taken from PMC6361964, “A transcription factor PU.1 is critical for Ccl22 gene expression in dendritic cells and macrophages”.

B1: Site 1&2 probe, mouse Ccl22 promoter (dsDNA)
DNA 1: CGCTGGGGGAAGTGGGACTTCTTCTTTCAG
DNA 2: CTGAAAGAAGAAGTCCCACTTCCCCCAGCG
B2: Site 1 probe, mouse Ccl22 promoter (dsDNA)
DNA 1: GGCTGGGGGAAGTGGGAC
DNA 2: GTCCCACTTCCCCCAGCC
B3: Site 2 probe, mouse Ccl22 promoter (dsDNA)
DNA 1: GTGGGACTTCTTCTTTCAG
DNA 2: CTGAAAGAAGAAGTCCCAC

The binders below were run against PU.1 (UniProt P17433 1-272) (assay: EMSA; anti-PU.1 Ab control; EMSA in 5% acrylamide gels with fluorescence detection; buffer, salt, pH and temperature not in the material). Conditions: protein: ivt; label: FLO (fluorescent).
B1: binds.
B2: binds.
B3: binds.
